Source: article PMC11214410 (iScience, 2024)

Biological target: T1, His-p97 F539A (human, UniProt P55072 1-806, F539A)
T1 construct: Homohexamer in the cryo-EM structure; also called F539A (D2); D2 mutant
Experiment: cross-linking; purified p97 F539A (1.26 mg/mL) and its adaptor (0.66 mg/mL) in 50mM HEPES pH 7.5, 30mM KCl, 10, 50 or 100 μM DTSSP, 30 min room temperature; trypsin, LC-MS/MS
Conditions: both partners purified

T1 sequence (P55072 whole entry F539A): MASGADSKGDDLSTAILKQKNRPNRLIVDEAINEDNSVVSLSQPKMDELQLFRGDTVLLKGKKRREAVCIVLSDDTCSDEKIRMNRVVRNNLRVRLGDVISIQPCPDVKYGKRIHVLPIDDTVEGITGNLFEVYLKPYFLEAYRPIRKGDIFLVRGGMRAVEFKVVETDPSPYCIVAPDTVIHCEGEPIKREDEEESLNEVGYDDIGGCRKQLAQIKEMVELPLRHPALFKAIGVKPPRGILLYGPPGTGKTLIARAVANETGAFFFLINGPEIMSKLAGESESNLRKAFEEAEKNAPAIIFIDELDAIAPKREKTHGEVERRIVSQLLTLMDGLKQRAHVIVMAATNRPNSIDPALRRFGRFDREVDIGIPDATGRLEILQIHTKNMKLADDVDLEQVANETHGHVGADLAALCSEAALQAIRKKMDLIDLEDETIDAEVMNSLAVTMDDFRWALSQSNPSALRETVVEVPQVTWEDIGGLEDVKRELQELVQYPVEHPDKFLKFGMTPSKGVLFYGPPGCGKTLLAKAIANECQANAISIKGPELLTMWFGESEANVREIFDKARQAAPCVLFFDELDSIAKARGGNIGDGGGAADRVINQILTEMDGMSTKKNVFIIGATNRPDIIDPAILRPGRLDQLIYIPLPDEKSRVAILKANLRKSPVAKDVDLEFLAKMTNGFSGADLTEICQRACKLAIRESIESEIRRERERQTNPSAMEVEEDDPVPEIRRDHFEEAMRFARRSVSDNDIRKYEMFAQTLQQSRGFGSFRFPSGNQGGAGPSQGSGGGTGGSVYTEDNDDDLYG

B1: Npl4 (untagged) (natural protein, rat, UniProt Q9ES54 1-608, looked up)
chain: MAESIIIRVQSPDGVKRITATKRETAATFLKKVAKEFGFQNNGFSVYINRNKTGEITASSSKSLHLLKIKHGDLLFLFPSSLAGPSSEMETSTSVGLKAFGAPHVVEDEIDQYLSKQDGKIYRSRDPQLCRHGPLGKCVHCVPLEPFDEDYLNHLEPPVKHMSFHAYIRKLTGGADKGKFVALENISCKIKSGCEGHLPWPNGICTKCQPSAITLNRQKYRHVDNIMFENHTVADRFLDFWRKTGNQHFGYLYGRYTEHKDIPLGIRAEVAAIYEPPQIGTQNSLELLEDPKAEVVDEIASKLGLRKVGWIFTDLVSEDTRKGTVRYSRNKDTYFLSSEECITAGDFQNKHPNICRLSPDGHFGSKFVTAVATGGPDNQVHFEGYQVSNQCMALVRDECLLPCKDAPELGYAKESSSEQYVPDVFYKDIDKFGNEITQLARPLPVEYLIIDITTTFPKDPVYTFSISQNPFPIENRDVLGETQDFHSLATYLSQNTSSVFLDTISDFHLLLFLVTNEVMPLQDSISLLLEAVRTRNEELAQTWKKSEQWATIEQLCSTVGVQLPGLHEFGAVGGSARAATSAMWACQHCTFMNQPGTGHCEMCSLPRT
notes: Npl4, untagged, expressed from pET30-Npl4; the cross-linking data were searched against rat Npl4; In the cryo-EM and cross-linking experiments Npl4 stood as part of the Ufd1/Npl4 heterodimer; source: E. coli BL21 (DE3), in lysate
binding result: binds
